Measurements: paper PMC3089455

Legend:
[1] = molecular target: Aeromonas hydrophila AhQnr (Aeromonas hydrophila ATCC 7966); experiment: AUC
[2] = molecular target: AhQnr Δdouble deletion mutant (both loops removed) with C-terminal hexahistidine tag (Aeromonas hydrophila ATCC 7966); experiment: SEC
[3] = molecular target: AhQnr Δloop1 deletion mutant with C-terminal hexahistidine tag (Aeromonas hydrophila ATCC 7966); experiment: SEC
[4] = molecular target: AhQnr Δloop2 deletion mutant with C-terminal hexahistidine tag (Aeromonas hydrophila ATCC 7966); experiment: SEC

“Aeromonas hydrophila AhQnr (natural protein)” showed a stoichiometry N [1] of 2.
Substance “AhQnr Δdouble deletion mutant (both loops removed) with C-terminal hexahistidine tag (natural protein)” has a stoichiometry N [2] of 2.
In the case of “AhQnr Δloop1 deletion mutant with C-terminal hexahistidine tag (natural protein)”, the stoichiometry N [3] is reported as 2.
Work on “AhQnr Δloop2 deletion mutant with C-terminal hexahistidine tag (natural protein)” yielded a stoichiometry N [4] of 2.
